Data on four molecules can be found in US20230295310A1 (ABCELLERA BIOLOGICS, published 2023).

Assay [1] addresses human EGFR, C-terminal eGFP-tagged, on CHO-K1 cells (human, UniProt P00533 25-1210). In words: cell-based or functional assay.
The target in the next assay is EGFR on HeLa cells (UniProt P00533 25-1210, limits assumed). In words: cell-based or functional assay.

B1: GOMP001_bsAb_051 (bispecific antibody, human IgG1, kappa, L234A L235A)
heavy 1: QVQLVQSGAEVKKPGASVKVSCKASGYTFTSHWMHWVRKAPGQGLEWIGEFNPSNGRTNYNEEFKSKATMTVDTSTNTAYMELSSLRSEDTAVYYCASRDYDYDGRYFDYWGQGTLVTVSSASTKGPSVFPLAPSSKSTSGGTAALGCLVADYFPEPVTVSWNSGALTSGVHTFPAVLQSSGLYSLSSVVTVPSSSLGTQTYICNVNHKPSNTKVDEKVEPKSCDKTHTCPPCPAPEAAGGPSVFLFPPKPKDTLMISRTPEVTCVVVDVSHEDPEVKFNWYVDGVEVHNAKTKPREEQYNSTYRVVSVLTVLHQDWLNGKEYKCKVSNKALPAPIEKTISKAKGQPREPQVYTLPPSREEMTDNQVSLTCLVKGFYPSDIAVEWESNGQPENNYKTTPPVLMSDGSFFLASKLTVDKSRWQQGNVFSCSVMHEALHNHYTQKSLSLSPG
light 1: RIQMTQSPSSLSASVGDRVTITCSASSSVTYMYWYQDKPGKAPKLLIYDTSNLASGVPSRFSGSGSGTDYTFTISSLQPEDIATYYCQQWSSHIFTFGQGTKVEIKRTVAAPSVFIFPPSDKQLKSGTARVVCLLNNFYPREAKVQWKVDNALQSGNSQESVTEQDSKDSTYSLSSTLTLSKADYEKHKVYACEVTHQGLSSPVTKSFNRGEC
heavy 2: LRSDDTAVYYCARGVRGNYYYYYMDVWGRGTTVTVSSASTKGPSVFPLAPSSKSTSGGTAALGCLVKDYFPEPVTVSWNSGALTSGVHTFPAVLQSSGLYSLSSVVTVPSSSLGTQTYICNVNHKPSNTKVDKKVEPKSCDKTHTCPPCPAPEAAGGPSVFLFPPKPKDTLMISRTPEVTCVVVDVSHEDPEVKFNWYVDGVEVHNAKTKPREEQYNSTYRVVSVLTVLHQDWLNGKEYKCKVSNKALPAPIEKTISKAKGQPRRPRVYTLPPSREEMTKNQVSLVCLVKGFYPSDIAVEWESNGQPENNYKTTPPVLDSDGSFFLYSVLTVDKSRWQQGNVFSCSVMHEALHNHYTQKSLSLSPG
light 2: EIVLTQSPDFQSVTPKEKVTITCRASQSIGSKLHWYQRKPDDSPKLLIKYASQSFSGVPSRFSGSGSGTDFNLTINSLEAEDAATFYCHQSSGLPYTFGQGTKLEIKRTVAAPSVFIFPPSDEQLKSGTASVVCLLNNFYPREAKVQWKVDNALQSGNSQESVTEQDSKDSTYSLSSTLTLSKADYEKHKVYACEVTHQGLSSPVTKSFNRGEC
In the case of B1, in assay [1], the “EC50 CHO-K1 EGFR Low (nM); T cell activation bioassay, luciferase” value (“EC50 CHO-K1 EGFR Low (nM)” below) was determined as 1.23 nM and the “EC50 CHO-K1 EGFR Med (nM); T cell activation bioassay, luciferase” value (“EC50 CHO-K1 EGFR Med (nM)” for short) amounted to 0.0922 nM.

B2: GOMP001_bsAb_056 (bispecific antibody, human IgG1, kappa, L234A L235A)
heavy 1: EVNLVESGGGLVQPGRSLRLSCAASGFTFDDYTMHWVRYVPGKGLEWVSNISWNSGSLGYADRVKGRFTISRDNAKDSLYLQMNSLRVEDTALYYCAKDSSGYGHYNSYYMDVWGRGTTVTVSSASTKGPSVFPLAPSSKSTSGGTAALGCLVKDYFPEPVTVSWNSGALTSGVHTFPAVLQSSGLYSLSSVVTVPSSSLGTQTYICNVNHKPSNTKVDKKVEPKSCDKTHTCPPCPAPEAAGGPSVFLFPPKPKDTLMISRTPEVTCVVVDVSHEDPEVKFNWYVDGVEVHNAKTKPREEQYNSTYRVVSVLTVLHQDWLNGKEYKCKVSNKALPAPIEKTISKAKGQPRRPRVYTLPPSREEMTKNQVSLVCLVKGFYPSDIAVEWESNGQPENNYKTTPPVLDSDGSFFLYSVLTVDKSRWQQGNVFSCSVMHEALHNHYTQKSLSLSPG
light 1: DIQMTQSPSSLSASVGDRVTITCRASQSIRNYLNWYQRKPGDAPKVLIYSASSLQSGVPSRFSGSGSGTDFTLTISSLQPEDFASFYCQQTYSTPITFGQGTRLEIKRTVAAPSVFIFPPSDEQLKSGTASVVCLLNNFYPREAKVQWKVDNALQSGNSQESVTEQDSKDSTYSLSSTLTLSKADYEKHKVYACEVTHQGLSSPVTKSFNRGEC
heavy 2: QVQLVQSGAEVKKPGASVKVSCKASGYTFTSHWMHWVRYAPGQGLEWIGEFNPSNGRTNYNEKFKSKATMTVDTSTNTAYMELSSLRSEDTAVYYCASRDYDYDGRYFDYWGRGTLVTVSSASTKGPSVFPLAPSSKSTSGGTAALGCLVKDYFPEPVTVSWNSGALTSGVHTFPAVLQSSGLYSLSSVVTVPSSSLGTQTYICNVNHKPSNTKVDKKVEPKSCDKTHTCPPCPAPEAAGGPSVFLFPPKPKDTLMISRTPEVTCVVVDVSHEDPEVKFNWYVDGVEVHNAKTKPREEQYNSTYRVVSVLTVLHQDWLNGKEYKCKVSNKALPAPIEKTISKAKGQPRRPRVYTLPPSREEMTKNQVSLVCLVKGFYPSDIAVEWESNGQPENNYKTTPPVLDSDGSFFLYSVLTVDKSRWQQGNVFSCSVMHEALHNHYTQKSLSLSPG
light 2: DIQMTQSPSSLSASVGDRVTITCSASSSVTYMYWYQRKPGDAPKLLIYDTSNLASGVPSRFSGSGSGTDYTFTISSLQPEDIATYYCQQWSSHIFTFGQGTKVEIKRTVAAPSVFIFPPSDEQLKSGTASVVCLLNNFYPREAKVQWKVDNALQSGNSQESVTEQDSKDSTYSLSSTLTLSKADYEKHKVYACEVTHQGLSSPVTKSFNRGEC
For the molecule B2, in assay [1], the “EC50 CHO-K1 EGFR Low (nM)” value worked out at 0.0291 nM and the “EC50 CHO-K1 EGFR Med (nM)” value came to 0.00412 nM.

B3: GOMP001_bsAb_055 (bispecific antibody, human IgG1, kappa, L234A L235A)
heavy 1: QVQLVQSGAEVKKPGASVKVSCKASGYTFTSHWMHWVRKAPGQGLEWIGEFNPSNGRTNYNEEFKSKATMTVDTSTNTAYMELSSLRSEDTAVYYCASRDYDYDGRYFDYWGQGTLVTVSSASTKGPSVFPLAPSSKSTSGGTAALGCLVADYFPEPVTVSWNSGALTSGVHTFPAVLQSSGLYSLSSVVTVPSSSLGTQTYICNVNHKPSNTKVDEKVEPKSCDKTHTCPPCPAPEAAGGPSVFLFPPKPKDTLMISRTPEVTCVVVDVSHEDPEVKFNWYVDGVEVHNAKTKPREEQYNSTYRVVSVLTVLHQDWLNGKEYKCKVSNKALPAPIEKTISKAKGQPREPQVYTLPPSREEMTDNQVSLTCLVKGFYPSDIAVEWESNGQPENNYKTTPPVLMSDGSFFLASKLTVDKSRWQQGNVFSCSVMHEALHNHYTQKSLSLSPG
light 1: RIQMTQSPSSLSASVGDRVTITCSASSSVTYMYWYQDKPGKAPKLLIYDTSNLASGVPSRFSGSGSGTDYTFTISSLQPEDIATYYCQQWSSHIFTFGQGTKVEIKRTVAAPSVFIFPPSDKQLKSGTARVVCLLNNFYPREAKVQWKVDNALQSGNSQESVTEQDSKDSTYSLSSTLTLSKADYEKHKVYACEVTHQGLSSPVTKSFNRGEC
heavy 2: EVNLVESGGGLVQPGRSLRLSCAASGFTFDDYTMHWVRYVPGKGLEWVSNISWNSGSLGYADRVKGRFTISRDNAKDSLYLQMNSLRVEDTALYYCAKDSSGYGHYNSYYMDVWGRGTTVTVSSASTKGPSVFPLAPSSKSTSGGTAALGCLVKDYFPEPVTVSWNSGALTSGVHTFPAVLQSSGLYSLSSVVTVPSSSLGTQTYICNVNHKPSNTKVDKKVEPKSCDKTHTCPPCPAPEAAGGPSVFLFPPKPKDTLMISRTPEVTCVVVDVSHEDPEVKFNWYVDGVEVHNAKTKPREEQYNSTYRVVSVLTVLHQDWLNGKEYKCKVSNKALPAPIEKTISKAKGQPRRPRVYTLPPSREEMTKNQVSLVCLVKGFYPSDIAVEWESNGQPENNYKTTPPVLDSDGSFFLYSVLTVDKSRWQQGNVFSCSVMHEALHNHYTQKSLSLSPG
light 2: DIQMTQSPSSLSASVGDRVTITCRASQSIRNYLNWYQRKPGDAPKVLIYSASSLQSGVPSRFSGSGSGTDFTLTISSLQPEDFASFYCQQTYSTPITFGQGTRLEIKRTVAAPSVFIFPPSDEQLKSGTASVVCLLNNFYPREAKVQWKVDNALQSGNSQESVTEQDSKDSTYSLSSTLTLSKADYEKHKVYACEVTHQGLSSPVTKSFNRGEC
For B3, in assay [1], the “EC50 CHO-K1 EGFR Low (nM)” value stood at 0.119 nM and the “EC50 CHO-K1 EGFR Med (nM)” value stood at 0.0139 nM.

B4: GOMP001_bsAb_011 (bispecific antibody, human IgG1, kappa, L234A L235A)
heavy 1: QVQLVQSGAEVKKPGASVKVSCKASGYTFTSHWMHWVRKAPGQGLEWIGEFNPSNGRTNYNEEFKSKATMTVDTSTNTAYMELSSLRSEDTAVYYCASRDYDYDGRYFDYWGQGTLVTVSSASTKGPSVFPLAPSSKSTSGGTAALGCLVADYFPEPVTVSWNSGALTSGVHTFPAVLQSSGLYSLSSVVTVPSSSLGTQTYICNVNHKPSNTKVDEKVEPKSCDKTHTCPPCPAPEAAGGPSVFLFPPKPKDTLMISRTPEVTCVVVDVSHEDPEVKFNWYVDGVEVHNAKTKPREEQYNSTYRVVSVLTVLHQDWLNGKEYKCKVSNKALPAPIEKTISKAKGQPREPQVYTLPPSREEMTDNQVSLTCLVKGFYPSDIAVEWESNGQPENNYKTTPPVLMSDGSFFLASKLTVDKSRWQQGNVFSCSVMHEALHNHYTQKSLSLSPG
light 1: RIQMTQSPSSLSASVGDRVTITCSASSSVTYMYWYQDKPGKAPKLLIYDTSNLASGVPSRFSGSGSGTDYTFTISSLQPEDIATYYCQQWSSHIFTFGQGTKVEIKRTVAAPSVFIFPPSDKQLKSGTARVVCLLNNFYPREAKVQWKVDNALQSGNSQESVTEQDSKDSTYSLSSTLTLSKADYEKHKVYACEVTHQGLSSPVTKSFNRGEC
heavy 2: EVQLVESGGGLVQPGGSLRLSCAASGFTLSSYTMNWVRYAPGKGLEWVSYISSSSRTIYYSDRVKGRFSISRDNAKNSLYLQMNSLRDEDTALYYCAREDYYDSSGFDNWGRGTLVTVSSASTKGPSVFPLAPSSKSTSGGTAALGCLVKDYFPEPVTVSWNSGALTSGVHTFPAVLQSSGLYSLSSVVTVPSSSLGTQTYICNVNHKPSNTKVDKKVEPKSCDKTHTCPPCPAPEAAGGPSVFLFPPKPKDTLMISRTPEVTCVVVDVSHEDPEVKFNWYVDGVEVHNAKTKPREEQYNSTYRVVSVLTVLHQDWLNGKEYKCKVSNKALPAPIEKTISKAKGQPRRPRVYTLPPSREEMTKNQVSLVCLVKGFYPSDIAVEWESNGQPENNYKTTPPVLDSDGSFFLYSVLTVDKSRWQQGNVFSCSVMHEALHNHYTQKSLSLSPG
light 2: DIRMTQSPSSFSASTGDRVTITCRASQGISSYLAWYQRKPGDAPKLLIYTASTLQSGVPSRFSGSGSGTDFTLTIRSLQSEDFATYYCQQYYSYPRTFGQGTKVEIKRTVAAPSVFIFPPSDEQLKSGTASVVCLLNNFYPREAKVQWKVDNALQSGNSQESVTEQDSKDSTYSLSSTLTLSKADYEKHKVYACEVTHQGLSSPVTKSFNRGEC
With B4, in the assay with EGFR on HeLa cells, the Max killing % came out at 77.8% and the “X… HeLa EC50” value worked out at 69.3 pM.
